Reference: the RNAGym collection of RNA variant scans (doi:10.7554/elife.80360)

B1: CPEB3 Ribozyme (parent)
chain: GGGGGCCACAGCAGAAGCGUUCACGUCGCGGCCCCUGUCAGAUUCUGGUGAAUCUGCGAAUUCUGCUGU

Variants of: B1
Experiment: self-cleavage, relative activity (ratio to wild type); higher = more cleavage; co-transcriptional

| Variant | self-cleavage |
| --- | --- |
| GAGGGCCACAGCAGAACCGUUCACGUCGCGGCCCCUGUCAGAUUCUGGUGAAUCUGCGAAUUCUGCUGU [G2A G17C] | 0.0329 |
| GAGGGCCACAGCAGAAGCGUUCACGUCGCGGCCCCUGUGAGAUUCUGGUGAAUCUGCGAAUUCUGCUGU [G2A C39G] | 0.0948 |
| GAGGGCCACAGCAGAAGCGUUCACGUCGCGGCCCCUGUCAGAUUCUGGUGAAUCUGCGAAUUCUGCUUU [G2A G68U] | 0.335 |
| GAGGGCCACAGCAGAAGCGUUAACGUCGCGGCCCCUGUCAGAUUCUGGUGAAUCUGCGAAUUCUGCUGU [G2A C22A] | 0.0696 |
| GAGGGCCACAGCAGAAGCGUUCACGUCGCGGCCGCUGUCAGAUUCUGGUGAAUCUGCGAAUUCUGCUGU [G2A C34G] | 0.03 |
| GAGGGCCACAGCAGAAGCGUUCACGUCCCGGCCCCUGUCAGAUUCUGGUGAAUCUGCGAAUUCUGCUGU [G2A G28C] | 0.0268 |
| GAGGGCCACAGCAGAAGCGUUCACGUCGCGGCCCCUGUCAGAUUCUGGUGAAUCUGCGAGUUCUGCUGU [G2A A60G] | 0.0573 |
| GAGGGCCACAGCAGAAGCGUUCACGUCGCGGCCCCUGUCAGAUUCUGGUGAAUCUGCGAUUUCUGCUGU [G2A A60U] | 0.0695 |
| GAGGGCCACAGCAGAAGCGUUCACGUCGCGGCCCCUGUCAGAUUCUGGUGAAUCUGCGAAUUCUACUGU [G2A G65A] | 0.163 |
| GAGGGCCACAGCAGAAGCGUUCACGUCGCGGACCCUGUCAGAUUCUGGUGAAUCUGCGAAUUCUGCUGU [G2A C32A] | 0.0579 |
| GAGGGCCACAGCAGAAGCGUUCACGUCGCGGGCCCUGUCAGAUUCUGGUGAAUCUGCGAAUUCUGCUGU [G2A C32G] | 0.0194 |
| GAGGGCGACAGCAGAAGCGUUCACGUCGCGGCCCCUGUCAGAUUCUGGUGAAUCUGCGAAUUCUGCUGU [G2A C7G] | 0.063 |
| GAGGGCCACAGCAGAAGCGAUCACGUCGCGGCCCCUGUCAGAUUCUGGUGAAUCUGCGAAUUCUGCUGU [G2A U20A] | 0.0398 |
| GAGGGCCACAGCAGAAGCGCUCACGUCGCGGCCCCUGUCAGAUUCUGGUGAAUCUGCGAAUUCUGCUGU [G2A U20C] | 0.0328 |
| GAGGGCCACAGCAGAAGCGUUCACGUCGCGGCCCCUGUCAGGUUCUGGUGAAUCUGCGAAUUCUGCUGU [G2A A42G] | 0.196 |
| GAGGGCCACAGCAGAAGCGUUCACGUCGCGUCCCCUGUCAGAUUCUGGUGAAUCUGCGAAUUCUGCUGU [G2A G31U] | 0.0712 |
| GAGGGCCACAGCAGAAGCGUUCACGUCGCGCCCCCUGUCAGAUUCUGGUGAAUCUGCGAAUUCUGCUGU [G2A G31C] | 0.0358 |
| GAGGGCCACAGCAGAAGCGUUCACGUCGCGGCCCCUGUCAGAUUCUUGUGAAUCUGCGAAUUCUGCUGU [G2A G47U] | 0.276 |
| GAGGGCCACAGCAGAAGCGUUCACGUCGCGGCCCCUGGCAGAUUCUGGUGAAUCUGCGAAUUCUGCUGU [G2A U38G] | 0.0237 |
| GAGGGCCACAGCAGAAGCGUUCACGUCGCGGCCCCUGUCAGAUUCUGGUGAAUCUGCGAAUUAUGCUGU [G2A C63A] | 0.104 |

| Variant | self-cleavage |
| --- | --- |
| GAGCGCCACAGCAGAAGCGUUCACGUCGCGGCCCCUGUCAGAUUCUGGUGAAUCUGCGAAUUCUGCUGU [G2A G4C] | 0.0317 |
| GAGAGCCACAGCAGAAGCGUUCACGUCGCGGCCCCUGUCAGAUUCUGGUGAAUCUGCGAAUUCUGCUGU [G2A G4A] | 0.0501 |
| GAGUGCCACAGCAGAAGCGUUCACGUCGCGGCCCCUGUCAGAUUCUGGUGAAUCUGCGAAUUCUGCUGU [G2A G4U] | 0.0384 |
| GAGGGCCACAGCAGAAGCGUUCACGUCGCGGCCCCUGUCAGAUUAUGGUGAAUCUGCGAAUUCUGCUGU [G2A C45A] | 0.132 |
| GAGGGCCACAGCAGAAGCGUUCACGUCGCGGCCCCUGUCAGAUUUUGGUGAAUCUGCGAAUUCUGCUGU [G2A C45U] | 0.117 |
| GAGGGCCACAGCAGAAGCGUUCAUGUCGCGGCCCCUGUCAGAUUCUGGUGAAUCUGCGAAUUCUGCUGU [G2A C24U] | 0.0737 |
| GAGGGCCACAGCAGAAGCGUUCAAGUCGCGGCCCCUGUCAGAUUCUGGUGAAUCUGCGAAUUCUGCUGU [G2A C24A] | 0.0565 |
| GAGGGCCACAGCAGAAGAGUUCACGUCGCGGCCCCUGUCAGAUUCUGGUGAAUCUGCGAAUUCUGCUGU [G2A C18A] | 0.0515 |
| GAGGGCCACAGCAGAAGGGUUCACGUCGCGGCCCCUGUCAGAUUCUGGUGAAUCUGCGAAUUCUGCUGU [G2A C18G] | 0.0324 |
| GAGGGCCACAGCAGAAGCGUUCACGUCGCGGCCCCUGUCAGAUACUGGUGAAUCUGCGAAUUCUGCUGU [G2A U44A] | 0.111 |
| GAGGGCCACAGAAGAAGCGUUCACGUCGCGGCCCCUGUCAGAUUCUGGUGAAUCUGCGAAUUCUGCUGU [G2A C12A] | 0.0566 |
| GAGGGCCACAGUAGAAGCGUUCACGUCGCGGCCCCUGUCAGAUUCUGGUGAAUCUGCGAAUUCUGCUGU [G2A C12U] | 0.201 |
| GAGGUCCACAGCAGAAGCGUUCACGUCGCGGCCCCUGUCAGAUUCUGGUGAAUCUGCGAAUUCUGCUGU [G2A G5U] | 0.0444 |
| GAGGGCCACAGCAGAAGCCUUCACGUCGCGGCCCCUGUCAGAUUCUGGUGAAUCUGCGAAUUCUGCUGU [G2A G19C] | 0.0616 |
| GAGGGCCACAGCAGAAGCGUUCACAUCGCGGCCCCUGUCAGAUUCUGGUGAAUCUGCGAAUUCUGCUGU [G2A G25A] | 0.0813 |
| GAGGGCCACAGCAGAAGCGUUCACGUCGCGGCCCCUGUCAGAUUCUGGUGAAUGUGCGAAUUCUGCUGU [G2A C54G] | 0.0929 |
| GAGGGCCACAGCAGAAGCGUUCACGUCGCGGCCCCUGUCAGAUUCUGGUGACUCUGCGAAUUCUGCUGU [G2A A52C] | 0.167 |
| GAGGGCCACAGCAGAAGCGUUCACGUCGCGGCGCCUGUCAGAUUCUGGUGAAUCUGCGAAUUCUGCUGU [G2A C33G] | 0.0627 |
| GAGGGCCACAGCAGAAGCGUUCACGUCGCGGCCCCUGUCACAUUCUGGUGAAUCUGCGAAUUCUGCUGU [G2A G41C] | 0.0676 |
